Laboratory results from patent US20250326828A1 (STAIDSON BEIJING BIOPHARMACEUTICALS, published 2025).
Like-named read-outs stand apart in the source and are kept apart here.

T1: human GDF15-his (human)
T1 chain: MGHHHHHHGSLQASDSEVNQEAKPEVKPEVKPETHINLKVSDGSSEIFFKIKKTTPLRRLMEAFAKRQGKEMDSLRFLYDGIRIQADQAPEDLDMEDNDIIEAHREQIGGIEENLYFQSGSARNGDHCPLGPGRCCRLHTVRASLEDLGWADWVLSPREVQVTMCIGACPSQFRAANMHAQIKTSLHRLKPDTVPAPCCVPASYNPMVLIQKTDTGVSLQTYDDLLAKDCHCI

T2: human GDF15-hFc (human)
T2 construct: Recombinant hFc-tagged fusion protein expressed in 293F cells
T2 chain: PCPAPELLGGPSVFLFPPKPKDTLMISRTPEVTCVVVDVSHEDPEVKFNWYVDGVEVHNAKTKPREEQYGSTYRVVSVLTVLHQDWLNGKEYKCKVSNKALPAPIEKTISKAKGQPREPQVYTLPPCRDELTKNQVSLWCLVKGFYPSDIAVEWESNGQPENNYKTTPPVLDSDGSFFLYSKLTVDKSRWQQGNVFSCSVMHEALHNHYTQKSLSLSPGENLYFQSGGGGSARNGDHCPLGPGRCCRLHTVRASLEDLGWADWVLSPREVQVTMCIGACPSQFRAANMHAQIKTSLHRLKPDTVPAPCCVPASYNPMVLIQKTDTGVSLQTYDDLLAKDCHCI


How the values were obtained:
human GDF15-his [1] = biological target: T1, human GDF15-his; experiment: cell-based or functional assay
human GDF15-hFc [2] = biological target: T2, human GDF15-hFc; experiment: competition ELISA as in Example 2; GFRAL-his coated, antibody titrated against human GDF15-hFc
Description: (§1) The ELISA assay was performed to measure the inhibitory activity of anti-GDF15 antibodies in concentration gradients to block GDF15 binding to GFRAL receptor. IC₅₀ values were used as a measure for neutralizing activity of candidate molecules. Briefly, 96-well plates were coated with 100 ng/well of GFRAL-his protein (SEQ ID NO: 74), and incubated for 1 h at 37° C. The plates were washed with PBST and then blocked for 1 hour at 37° C. with 1% BSA. Gradient-diluted antibodies (dose range 0˜10 μg/ml) was added into each well, immediately followed by equal volume of human GDF15-hFc protein ([…]). After incubation and washing, 100 μl of anti-human IgG secondary antibody (goat anti-human IgG-HRP, Sigma, A8667) was added to each well. Finally, TMB solution (100 μl/well) was added. 2M H₂SO₄ was used to stop the reaction. The OD450 was measured and the binding curve was generated by PRISM to calculate the IC₅₀ value.

human GDF15-his [3] = biological target: T1, human GDF15-his; experiment: ELISA as in Example 2: plate coated with the antibody, graded human GDF15-his, anti-his-HRP, OD450; the sheet's x axis reads 'Log GDF15 Antibody (nM)'
Description: (§2) ELISA binding assay: The purified monoclonal antibody was subjected to a binding assay with human GDF15-his protein. The binding assay was designed to characterize the binding activity of the anti-GDF15 antibody. Briefly, a 96-well plate was coated with anti-GDF15 antibody (200 ng/well) and incubated for 1 hour at 37° C. The plates were washed with PBST and then blocked for 1 hour at room temperature using 1% BSA. Then 100 µl/well of gradient-diluted human GDF15-his solution (dose range 0-50 μg/ml) was added into plates. After incubation, 100 μl of anti-his tag secondary antibody (anti-his-HRP (1:2000), Bersee, cat #BHR790) was added to each well. Finally, the TMB solution (100 μl/well) was added. 2M H₂SO₄ was used to stop the reaction. The OD450 was measured, and the binding curves were generated by PRISM software to analyze the affinity of candidate antibodies to human GDF15 antigen, and EC₅₀ value were calculated.

human GDF15-his [4] = biological target: T1, human GDF15-his; experiment: as above
Description: as §2

human GDF15-his [5] = biological target: T1, human GDF15-his; experiment: cell-based or functional assay
human GDF15-his [6] = biological target: T1, human GDF15-his; experiment: ELISA as in Example 2: plate coated with the antibody, graded human GDF15-his, anti-his-HRP, OD450; the sheet's x axis reads 'Log GDF15 antibody (nM)'
Description: as §2

human GDF15-his [7] = biological target: T1, human GDF15-his; experiment: cell-based or functional assay
human GDF15-his [8] = biological target: T1, human GDF15-his; experiment: cell-based or functional assay
human GDF15-his [9] = biological target: T1, human GDF15-his; experiment: ELISA; antibody coated, human GDF15-his titrated, anti-his-HRP detection
Description: as §2

human GDF15-hFc [10] = biological target: T2, human GDF15-hFc; experiment: competition ELISA; GFRAL-his coated, antibody titrated against human GDF15-hFc, anti-human IgG-HRP detection
Description: as §1

Row | Binder | IC50 (human GDF15-hFc [2]) [nM] | IC50, 293T-GFRAL/RET-Luc SRE luciferase reporter cells stimulated with human GDF15-his (15 ng/ml) (human GDF15-his [8]) [nM] | EC50 (human GDF15-his [9]) [nM] | IC50 (human GDF15-hFc [10]) [nM] | other results
1 | hum_R37-10 (antibody, V domains shown, Tested in human IgG1 format) VH: EVQLVESGGGLVKPGGSLRLSCAASGFSLSNYYMSWVRQAPGKGLEWIGMISFSGTTYATWAKGRFTISRDDSKNTVYLQINSLKTEDTAVYFCARVVYAGWTYPLGIWGQGTLVTVSS VL: DIQMTQSPSSLSASVGDRVTITCQASQSISSVLSWYQQKPGKPPKALIYEASILASGVPSRFSGSGSGTDFTLTISSLQPEDFATYYCQANYDVYNYGNPFGGGTKVEIK | 1.86 | – | – | – | IC50 (read off the curve), SRE-luciferase signal in 293T-GFRAL/RET-Luc cells with human GDF15-his (human GDF15-his [1]): ~0.06 nM; EC50 (read off the curve) (human GDF15-his [3]): ~80 nM
2 | hum_R37-12 (antibody, V domains shown, Tested in human IgG1 format) VH: EVQLVESGGGLVKPGGSLRLSCAASGFSLSNYYMSWVRQAPGKGLEWVGMISFSGTTYATWAKGRFTISRDDSKNTLYLQMNSLKTEDTAVYFCARVVYAGWTYPLGIWGQGTLVTVSS VL: DIQMTQSPSSLSASVGDRVTITCQASQSISSVLSWYQQKPGKPPKALIYEASILASGVPSRFSGSGSGTDFTLTISSLQPEDFATYYCQANYDVYNYGNPFGGGTKVEIK | 1.83 | – | – | – | IC50 (read off the curve), SRE-luciferase signal in 293T-GFRAL/RET-Luc cells with human GDF15-his (human GDF15-his [7]): ~0.05 nM; EC50 (read off the curve) (human GDF15-his [3]): ~80 nM
3 | GDF-R44-rabIg1 (antibody, V domains shown, Full-length rabbit antibody: rabbit IgG1 heavy constant and rabbit light constant; also called GDF15-R44-rabIg1) VH: QSVKESGGRLVTPGTPLTLTCKASGFSLSTYWMSWVRQAPGKGLEWIGTIYAGSGGTWYASWVKGRFTISKTSTTVDLKMTSLTTEDTATYFCVRGPNYSDAIWGPGTLVTVSS VL: DIVLTQTAASVSEPVGGTVTIKCQASEYIYSSLAWYQQKPGQPPKLLIYDASDLASGVPSRFKGSGYGTEFTLTISGVQCGDAATYYCQCTDLSSSAGNTFGGGTEVVVK | – | 0.27 | 54.8 | 1.98 | –
4 | GDF-R31-rabIg1 (antibody, V domains shown, Full-length rabbit antibody: rabbit IgG1 heavy constant (pTTa1-rab Ig1-H) and rabbit light constant (pTTa1-rab-CLB4); also called GDF15-R31-rabIg1) VH: QQLKESGGRLVTPGTPLTLTCTVSGFSLSDYYMSWVRQAPGKGLEWIGDIYGGSGTTDYASWVKGRFTISKTSTTVDLRIASPTTEDTATYFCGRGITADIWGPGTLVTVSL VL: DIVLTQTPASVEAAVGGTVTIKCQASQSISSYLAWYQQKPGQPPKLLIYKASTLASGVPSRFKGSGSGTEFTLTISDLECADAATYYCRCIYGDSYGAAFGGGTEVVVQ | – | – | 66.5 | 2.28 | –
5 | GDF-R36-rabIg1 (antibody, V domains shown, Full-length rabbit antibody: rabbit IgG1 heavy constant and rabbit light constant; also called GDF15-R36-rabIg1) VH: QSLEESGGRLVTPGTPLTLTCTASGFSLSNYYMSWVRQAPGEGLEWIGMISFSGTTYATWAKGRFTISKTSTTVDLKITSPTTEDTATYFCARVVYAGWTYPLGIWGPGTLVTVSS VL: DPVLTQTPASVSEPVGGTVTIKCQASQSISSVLSWYQQKPGQPPKVLIYEASTLASGVPSRFKGSGSGTDFTLTISDLECADAATYYCQANYDVYNYGNPFGGGTEVVVK | – | 0.17 | 44.4 | 1.44 | –

Second part, led by results:

Row | IC50 (human GDF15-hFc [2]) [nM] | IC50, 293T-GFRAL/RET-Luc SRE luciferase reporter cells stimulated with human GDF15-his (15 ng/ml) (human GDF15-his [8]) [nM] | EC50 (human GDF15-his [9]) [nM] | IC50 (human GDF15-hFc [10]) [nM] | Binder | other results
6 | 1.72 | – | – | – | hum_R37-6 (antibody, V domains shown, Tested in human IgG1 format) VH: EVQLVESGGGLVKPGGSLRLSCAASGFSLSNYYMSWVRQAPGKGLEWVGMISFSGTTYATWAKGRFTISRDDSKNTLYLQMNSLKTEDTAVYFCARVVYAGWTYPLGIWGQGTLVTVSS VL: DIQLTQSPSSLSASVGDRVTITCQASQSISSVLSWYQQKPGKPPKALIYEASILASGVPSRFSGSGSGTDFTLTISSLQPEDFATYYCQANYDVYNYGNPFGGGTKVEIK | IC50 (read off the curve), SRE-luciferase signal in 293T-GFRAL/RET-Luc cells with human GDF15-his (human GDF15-his [1]): ~0.06 nM; EC50 (read off the curve) (human GDF15-his [4]): ~60 nM
7 | 1.51 | – | – | – | hum_R37-14 (antibody, V domains shown, Tested in human IgG1 format) VH: EVQLVESGGGLVKPGGSLRLSCAASGFSLSNYYMSWVRQAPGKGLEWIGMISFSGTTYATWAKGRFTISKDSSTVYLQINSLKTEDTAVYFCARVVYAGWTYPLGIWGQGTLVTVSS VL: DIQMTQSPSSLSASVGDRVTITCQASQSISSVLSWYQQKPGKPPKLLIYEASILASGVPSRFSGSGSGTDFTLTISSLQPEDFATYYCQANYDVYNYGNPFGGGTKVEIK | IC50 (read off the curve), SRE-luciferase signal in 293T-GFRAL/RET-Luc cells with human GDF15-his (human GDF15-his [5]): ~0.2 nM; EC50 (read off the curve) (human GDF15-his [6]): ~200 nM
8 | 1.76 | – | – | – | hum_R37-4 (antibody, V domains shown, Tested in human IgG1 format) VH: EVQLVESGGGLVKPGGSLRLSCAASGFSLSNYYMSWVRQAPGKGLEWIGMISFSGTTYATWAKGRFTISRDDSKNTVYLQINSLKTEDTAVYFCARVVYAGWTYPLGIWGQGTLVTVSS VL: DIQLTQSPSSLSASVGDRVTITCQASQSISSVLSWYQQKPGKPPKALIYEASILASGVPSRFSGSGSGTDFTLTISSLQPEDFATYYCQANYDVYNYGNPFGGGTKVEIK | IC50 (read off the curve), SRE-luciferase signal in 293T-GFRAL/RET-Luc cells with human GDF15-his (human GDF15-his [1]): ~0.06 nM; EC50 (read off the curve) (human GDF15-his [4]): ~60 nM
9 | 1.63 | – | – | – | hum_R37-16 (antibody, V domains shown, Tested in human IgG1 format) VH: EVQLVESGGGLVKPGGSLRLSCAASGFSLSNYYMSWVRQAPGKGLEWIGMISFSGTTYATWAKGRFTISRDDSKNTVYLQINSLKTEDTAVYFCARVVYAGWTYPLGIWGQGTLVTVSS VL: DIQMTQSPSSLSASVGDRVTITCQASQSISSVLSWYQQKPGKPPKLLIYEASILASGVPSRFSGSGSGTDFTLTISSLQPEDFATYYCQANYDVYNYGNPFGGGTKVEIK | IC50 (read off the curve), SRE-luciferase signal in 293T-GFRAL/RET-Luc cells with human GDF15-his (human GDF15-his [7]): ~0.08 nM; EC50 (read off the curve) (human GDF15-his [6]): ~200 nM
10 | – | 0.18 | 30.9 | 0.82 | GDF-R54-rabIg1 (antibody, V domains shown, Full-length rabbit antibody: rabbit IgG1 heavy constant and rabbit light constant; also called GDF15-R54-rabIg1) VH: QQLKESGGRLVTPGTPLTLTCTVSGFSLSSYDMTWVRQVPGKGLEWIGIINNSGNTYYASWAKGRFTISKTSTTVDLKITSPTTEDTATYFCARGILVYADYGDHNLWGPGTLVTVSS VL: DVVMTQTASPVSAAVGGTVTINCQASEDIYTNLAWFQQKPGQPPKLLIYAASTLASGVPSRFSGSGSGTEFTLTISGLQCDDAATYFCLGVYTYISADGAFGGGTEVVVK | –
11 | – | 0.21 | 31.3 | 1.32 | GDF-R35-rabIg1 (antibody, V domains shown, Full-length rabbit antibody: rabbit IgG1 heavy constant and rabbit light constant; also called GDF15-R35-rabIg1) VH: QSLEESGGRLVTPGTPLTLTCTASGFSLSNYYMSWVRQAPGEGLEWIGMISFSGTTYATWAKGRFTISKTSTTVDLKITSPTTEDTATYFCARVVYAGWTYPLGIWGPGTLVTVSS VL: AINMTQTPASVSEPVGGTVTIKCQASQSISSVLSWYQQKPGQPPKVLIYEASTQASGVPSRFKGSGSGTDFTLTISDLECADAATYYCQANYDVYNYGNPFGGGTEVVVK | –
12 | – | 0.18 | 68.9 | 1.56 | GDF-R45-rabIg1 (antibody, V domains shown, Full-length rabbit antibody: rabbit IgG1 heavy constant and rabbit light constant; also called GDF15-R45-rabIg1) VH: QSVKESGGRLVTPGTPLTLTCTASGFSLSDYYMTWVRQAPGEGLEWIGMISFSGTTYATWAKGRFTISKASTTVDLKITSPTTEDTATYFCARVVYAGWTYPLGIWGPGTLVTVSS VL: YVMMTQTPPSVSEPVGGTVTIKCQASQSISSVLSWYQQKPGQPPKVLIYEASTLASGVPSRFKGSGSGTDFTLTISDLECADAATYYCQANYDVYNYGNPFGGGTEVVVK | –
